The values below come from US20260042834A1 (HBM ALPHA THERAPEUTICS, published 2026).

Changes are numbered by the printed parent chain. Where “and” joins values, the source holds several entries; their conditions need not be identical. Equal values may be shown once.

For one experiment, the target named is T1, human UCN1 peptide (human, UniProt P55089 83-122, not fully specified; biotin at N- or C-terminus in the ELISA).
T1 peptide (looked up): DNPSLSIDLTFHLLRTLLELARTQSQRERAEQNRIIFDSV
In words: cell-based or functional assay.

The target in experiment [1] is T2, human UCN3 peptide (human, UniProt Q969E3 120-157, not fully specified; biotin at N- or C-terminus in the ELISA).
T2 construct: also called hUCN3; hUCN3 (NT Biotin)
T2 peptide (looked up): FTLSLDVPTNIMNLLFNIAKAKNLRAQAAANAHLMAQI
Briefly: ELISA, biotinylated hUCN3 on streptavidin plates. How it is done:
(§1) Streptavidin (Thermo, Cat: 21125) was diluted in PBS with a concentration of 2 μg/mL. 100 μL of diluted streptavidin was added per well to ELISA microplates, and the plates were incubated overnight at 4° C. Plates were blocked with ELISA blocking solution (containing 2% w/v BSA, 0.05% (v/v) Tween-20, pH 7.4 PBS buffer) at 37° C. for 1 hour, and then incubated with either 1 μg/mL hUCN1 (NT Biotin), hUCN1 (CT Biotin), hUCN2 (NT Biotin), hUCN2 (CT Biotin), hUCN3 (NT Biotin), or hUCN3 (CT Biotin) for 1 hour at 37° C. […] 100 μl of TMB Substrate (Biopanda, Cat: TMB-S-003) was added, and the plates were incubated at room temperature for 15 minutes. 100 μL of ELISA stopping solution (Solarbio, Cat #: C1058) was then added to terminate the reaction, and the OD450 nm was determined by an ELISA plate reader (Molecular Devices, Spectra max 384 plus).
For orientation: ELISA stands for enzyme-linked immunosorbent assay.

Experiment [2] has as its target T3, human UCN2 peptide (human, UniProt Q96RP3 72-109, limits assumed, not fully specified; biotin at N- or C-terminus in the ELISA).
T3 construct: also called hUCN2; hUCN2 (NT Biotin)
T3 peptide (looked up): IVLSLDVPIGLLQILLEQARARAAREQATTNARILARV
In words: ELISA, biotinylated hUCN2 on streptavidin plates. The method, then: as §1

Experiment [3] concerns the target T3, human UCN2 peptide. In words: ELISA on streptavidin-captured hUCN2 (NT biotin) and hUCN2 (CT biotin), mAb at 100 nM and 10 nM, OD450. How it is done:
as §1

Experiment [4] deals with T4, biotinylated CRH (human and mouse, not fully specified; biotinylated, position not stated).
T4 construct: also called Biotin-CRH; biotin-labeled CRH
T4 peptide: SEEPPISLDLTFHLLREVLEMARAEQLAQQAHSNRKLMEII
Briefly: Octet BLI, biotinylated CRH on SA sensor. (BLI is a label-free optical method that tracks binding on a fibre tip over time.)

Experiment [5] deals with T2, human UCN3 peptide. In words: ELISA on streptavidin-captured hUCN3 (NT biotin) and hUCN3 (CT biotin), mAb at 100 nM and 10 nM, OD450. The method, then: as §1
Experiment [6] has as its target T4, biotinylated CRH. Briefly: Octet in-tandem, row = 1st mAb; competitor (2nd mAb) PR302334. The method, then: (§2) SA sensors (Fortebio, Cat #18-5019) were hydrated in running buffer for 10 mins.
The target in a further experiment is T5, CRH (CT Biotin) (human and mouse, C-terminal K-Biotin).
T5 construct: also called Peptide 4 (CRH-Biotin)
T5 peptide: T4 peptide
In words: ELISA, biotin peptide on streptavidin plate. In outline: (§3)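 Streptavidin coat 2 μg/ml in PBS, o/n 4° C. TMB 15 min RT, stop solution, read OD450 nm.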

The target in a further experiment is T6, hUCN1 (CT Biotin) (human, UniProt P55089 83-122, biotin at the C-terminus).
T6 construct: also called human UCN1 (CT biotin)
T6 peptide (looked up): T1 peptide (looked up)
In words: ELISA, biotin peptide on streptavidin plate. In a few lines:
as §3

The target of a further experiment is T7, CRH (NT Biotin) (human and mouse, not fully specified; biotin at the N-terminus).
T7 peptide: T4 peptide
Briefly: ELISA, biotin peptide on streptavidin plate. In outline:
as §3

The next experiment deals with T8, hUCN1 (NT Biotin) (human, UniProt P55089 83-122, biotin at the N-terminus).
T8 construct: also called human UCN1 (NT biotin)
T8 peptide (looked up): T1 peptide (looked up)
In words: ELISA, biotin peptide on streptavidin plate. In outline:
as §3

A further experiment concerns the target T9, N-Terminal CRH (human and mouse, C-terminal K-Biotin).
T9 construct: also called N-Ter-CRH (CT-Bion)
T9 peptide: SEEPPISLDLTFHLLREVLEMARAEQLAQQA
In words: ELISA, biotin peptide on streptavidin plate. In a few lines: as §3

Experiment [7] has as its target T10, corticotropin-releasing hormone (CRH) peptide (human and mouse, not fully specified).
T10 peptide: T4 peptide
In words: cell-based or functional assay.

Experiment [8] has as its target T4, biotinylated CRH. In words: Octet in-tandem, row = 1st mAb; competitor (2nd mAb) PR303394. How it is done: as §2
Experiment [9] has as its target T4, biotinylated CRH. In words: Octet in-tandem, row = 1st mAb; competitor (2nd mAb) PR301777. How it is done:
as §2

For experiment [10], the target named is T4, biotinylated CRH. In words: Octet in-tandem, row = 1st mAb; competitor (2nd mAb) PR005660. How it is done:
as §2

The target of experiment [11] is T4, biotinylated CRH. Briefly: Octet in-tandem, row = 1st mAb; competitor (2nd mAb) PR006669. How it is done: as §2
For experiment [12], the target named is T4, biotinylated CRH. In words: Octet in-tandem, row = 1st mAb; competitor (2nd mAb) PR302341-34. The method, then: as §2
Experiment [13] addresses T4, biotinylated CRH. In words: competitive ELISA, coated 1st mAb; competitor PR302055. How it is done:
(§4) For epitope binding, a competitive ELISA was performed. Specifically, 1 μg/ml of capture antibody, 100 μl/well, was coated on a 96 well-plate at 4° C. overnight. Plates were blocked with ELISA blocking solution (containing 2% w/v BSA, 0.05% (v/v) Tween-20, pH 7.4 PBS buffer) at 37° C. for 1 hour. […] Subsequently, plates were washed and incubated with Streptavidin-Peroxidase (SIGMA, Cat: 52438-250UG) at 37° C. for 1 hour. 100 μL of 3,3′,5,5′-tetramethylbenzidine (TMB) substrate (Biopanda, Cat: TMB-S-003) was added, and the plates were incubated at room temperature for 15 minutes. 100 μL of ELISA stopping solution (Solarbio, Cat #: C1058) was added to terminate the reaction, and the optical density at 450 nm (OD450 nm) was determined by an ELISA plate reader (Molecular Devices, Spectra max 384 plus).

Experiment [14] concerns the target T4, biotinylated CRH. Briefly: competitive ELISA, coated 1st mAb; competitor PR006148. How it is done:
as §4

Experiment [15] deals with T4, biotinylated CRH. Briefly: competitive ELISA, coated 1st mAb; competitor hIgG1. How it is done:
as §4

Experiment [16] addresses T4, biotinylated CRH. Briefly: competitive ELISA, coated 1st mAb; competitor PR004290. The method, then: as §4
In experiment [17] the target is T4, biotinylated CRH. Briefly: competitive ELISA, coated 1st mAb; competitor PR006152. The method, then:
as §4

Experiment [18] deals with T4, biotinylated CRH. Briefly: competitive ELISA, coated 1st mAb; competitor PR302064. How it is done: as §4
Experiment [19] deals with T4, biotinylated CRH. In words: competitive ELISA, coated 1st mAb; competitor PR302050. How it is done:
as §4

Experiment [20] deals with T4, biotinylated CRH. Briefly: competitive ELISA, coated 1st mAb; competitor PR301777. How it is done: as §4
The target of experiment [21] is T4, biotinylated CRH. Briefly: competitive ELISA, coated 1st mAb; competitor PR005660. How it is done:
as §4

The target of experiment [22] is T4, biotinylated CRH. Briefly: competitive ELISA, coated 1st mAb; competitor PR302069. The method, then:
as §4

Experiment [23] has as its target T2, human UCN3 peptide. In words: ELISA on streptavidin-captured hUCN3 (NT biotin) and hUCN3 (CT biotin), mAb at 100 nM and 10 nM; axis labelled RLU, scale 0-4. How it is done:
as §1

The target in experiment [24] is T3, human UCN2 peptide. In words: ELISA on streptavidin-captured hUCN2 (NT biotin) and hUCN2 (CT biotin), mAb at 100 nM and 10 nM; axis labelled RLU, scale 0-4. The method, then: as §1

B1: PR302341-55 (antibody, human IgG1, kappa, V domains shown)
VH: QVQLVQSGAEVKKPGASVKVSCKASGYTFTDYFMKWVRQAPGQRLEWMGVINPNNADIFYNQKFKGRVTITRDTSASTAYMELSSLRSEDTAVYYCARGTDRALFAYWGQGTLVTVSS
VL: DVVMTQSPLSLPVTLGQPASISCRSGQSIVHSDGNTYLEWYQQRPGQSPRLLIYKVSNRFSGVPDRFSGSGSGTDFTLKISRVEAEDLGVYYCFQGSHIPWTFGGGTKVEIKR
notes: Humanized, PTM-removed variant of PR302341
Turning to B1, the “potency on hUCN1-induced against CRH-induced hCRHR1 reporter activity” value in the experiment with human UCN1 peptide stood at 267 fold lower. For the same molecule, the binding result with human UCN3 peptide [1] and with human UCN2 peptide [2] was “no binding (tested: 100 nM)” throughout.

B2: PR302309-8 (antibody, human IgG1, kappa, V domains shown)
VH: QIQLVQSGSELKKPGASVKVSCKASGYTFTNYGMNWVRQAPGQGLEWMGWINTYTGEPIYTDDFKGRFVFSLDTSVSTAYLQISSLKAEDTAVYYCSRSTMITTGGVFAYWGQGTLVTVSS
VL: B1 VL with G26S, S28T, I99V
notes: Humanized variant of PR302309
As for B2, the binding result with human UCN2 peptide [3] and in the experiment with human UCN3 peptide [5] was “no binding (tested: 100 nM)” in each case. For the same molecule, binding with biotinylated CRH [4] was characterised by a dissociation constant (Kd) of 0.513 nM. For the same molecule, the koff (in general, a measure of how fast the partners let go of each other) in the experiment with biotinylated CRH [4] was determined as 0.000136 s⁻¹. Also, the on-rate (kon) (as a rule, the rate constant with which the complex forms) in the experiment with biotinylated CRH [4] was 266000 M⁻¹ s⁻¹. The % Inhibition (commonly how much of the control response was suppressed) was 65% with biotinylated CRH [6]; 77% in the experiment with biotinylated CRH [8]; 80% with biotinylated CRH [9]; 76% in the experiment with biotinylated CRH [10]; 76% with biotinylated CRH [11]; 74% with biotinylated CRH [12]. Also, the EC50 (as a rule, the concentration at which the effect is half-maximal) was found to be 0.029 nM with CRH (CT Biotin); 1.88 nM with hUCN1 (CT Biotin); 0.025 nM with CRH (NT Biotin); 0.126 nM in the experiment with hUCN1 (NT Biotin); 0.025 nM with N-Terminal CRH. In experiment [7], the “CHO-CRE-hCRHR1 0.5 nM CRH IC50” value was determined as 1.7 nM.

B3: PR302050 (antibody, human IgG1, kappa, V domains shown)
VH: EMQLVESGGGLVQPGGSLKLSCAASGFTFSNYWMNWVRQASGKGLEWVAEIRLKSNNYATHYAESVKGRFTISRDDSKSTVYLQMNSLKTEDTAVYYCTVGTLVYWGQGTLVTVSS
VL: DIVLTQSPDSLAVSLGERATINCRASQSVSTSTYNYMHWFQQKPGQPPKLLIKFASNLESGVPDRFSGSGSGTDFTLTISSLQAEDTAVYYCQHSWEIPYTFGQGTKLEIKR
notes: Humanized variant of PR301777
As to B3, the “% Inhibition” value with biotinylated CRH [13] came to 94%; in the experiment with biotinylated CRH [14] it was 95%; with biotinylated CRH [15] it was 0%; with biotinylated CRH [16], 94%; with biotinylated CRH [17], 96%; with biotinylated CRH [18], 95%. Besides, the “% Inhibition” value with biotinylated CRH [19], with biotinylated CRH [20], with biotinylated CRH [21] and with biotinylated CRH [22] was 94% throughout. For the same molecule, the Kd (in general, the equilibrium constant for the complex coming apart) with biotinylated CRH [4] is under 0.001 nM. This molecule also gave a koff with biotinylated CRH [4] of under 1e-07 s⁻¹. Besides, in the experiment with biotinylated CRH [4], the kon stood at 470000 M⁻¹ s⁻¹.

B4: PR302064 (antibody, human IgG1, kappa, V domains shown)
VH: B3 VH with Q13K, K19R, S41P
VL: B3 VL
notes: Humanized variant of PR301777
In the case of B4, the “% Inhibition” value in the experiment with biotinylated CRH [13] stood at 95%; in the experiment with biotinylated CRH [14] it was 94%; with biotinylated CRH [15], 1%; with biotinylated CRH [16], 93%; with biotinylated CRH [17], 94%; with biotinylated CRH [18], 95%. Further, the “% Inhibition” value in the experiment with biotinylated CRH [19] is 95%; with biotinylated CRH [20] it was 94%; with biotinylated CRH [21], 94%; with biotinylated CRH [22], 95%. Besides, the binding result with human UCN3 peptide [23] and in the experiment with human UCN2 peptide [24] was “no binding (tested: 100 nM)” in each case. This molecule also showed a Kd with biotinylated CRH [4] of under 0.001 nM. Further, the EC50 is 0.026 nM and 0.023 nM with CRH (CT Biotin); 0.208 nM and 0.256 nM with hUCN1 (CT Biotin); 0.03 nM in the experiment with CRH (NT Biotin); 0.118 nM and 0.142 nM in the experiment with hUCN1 (NT Biotin); 0.022 nM in the experiment with N-Terminal CRH. Besides, the “CHO-CRE-hCRHR1 0.5 nM CRH IC50” value in [7] was 0.531 nM and 0.664 nM.
